PMC8299219 (Cell, 2021)
Numbering of substitutions follows the chain as printed.

B1: C12B10 (antibody, V domains shown)
VH: EVQLVESGGGLVQPGGSLRLSCAASGFTFSSYAMHWVRQAPGKGLEYVSAINSYGGSTYYANSVKGRFTISRDNSKNTLYLQMGSLRAEDMAVYYCAREVQGVATMDGAFDIWGQGTMVTVSS
VL: SYELTQPPSVSVAPGKTARITCGGNNIGSKSVHWYQQKPGQAPVLVIYYDSDRPSGIPERFSGSNSGNTATLTISRVEAGDEADYYCQVWDSSSDPHWVFGGGTKLTVL
B2: C12E9 (antibody, V domains shown)
VH: QVQLVQSGAEVKKPGSSVKVSCKASGGTFSSYAISWVRQAPGQGLEWMGGIIPIFGTASYAQKFQGRVTITADESTSTAYMELSSLRSEDTAVYYCARGSVGLGGDCYQCGYYFDYWGQGTLVTVSS
VL: not shown
B3: C12C6 (antibody, V domains shown)
VH: QVQLVESGGGVVQPGRSLRLSCAASGFTFSSYAMHWVRQAPGKGLEWVAVISYDGSNKHYADSVKGRFTISRDNSKNTLYLQMNSLRAEDTAVYYCARDPQYCSSTSCSMGVGWFDPWGQGTLVTVSS
VL: SYELTQPPSVSVAPGKTARITCGGNNIGSKSVHWYQQKPGQAPVLVIYYDSDRPSGIPERFSGSNSGNTATLTISRVEAGDEADYYCQVWDSSSDHAYWVFGGGTKLTVL
B4: C29C2 (antibody, V domains shown)
VH: EVQLVQSGAEVKKPGESLKISCKGSGYSFTSYWIGWVRQMPGKGLEWMGIIYPGDSDTRYSPSFQGQVTISADKSISTAYLQWSSLKASDTAMYYCARLPVSTHPLYYYFGMDVWGQGTTVTVSS
VL: not shown
B5: C12D1 (antibody, V domains shown)
VH: EVQLVQSGAEVIKPGESLKISCKGSGYSFTSYWIGWVRQMPGKGLEWMGIIYPGDSDTRYSPSFQGQVTISADKSISTAYLQWSSLKASDTAIYYCARLGGSVTNIEFIDYWGQGTLVTVSS
VL: not shown
B6: C81F5 (antibody, V domains shown)
VH: QVQLVESGGGVVQPGRSLRLSCAASGFTFSNSGMHWVRQAPGKGLEWVAVISYDGSHKYYADSVKGRFTISRDNSKNTLYLQMNTLRAEDTAVYYCAKEESAVAGTGVPYYYYYYMDVWGKGTTVTVSS
VL: not shown
B7: C163E5 (antibody, V domains shown)
VH: QVQLQESGPGLVKPSETLSLTCTVSGASIRSFHWSWIRQPAGKGLEWIGRLLTTGSTNYNRSLKSRVTMSVDTSKNQFSLKLSSVTAADTAVYYCSRGTEMNMEVPGVVTGSEFFDYWGQGTLVTVSS
VL: EIVLTQSPATLSLSPGERATLSCRASQSVSSYLAWYQRKPGQAPRLLIYDASNRATGIPARFSGSGSGTDFTLTISSLEPEDFAVYYCQQRRNWPETFGQGTKLEIK
B8: G32Q2 (antibody, V domains shown)
VH: EVQLLESGGGLVQPGGSLRLSCAASGFTFSNYAMSWVRQAPGKGLEWVSAISGSGSTTYYADSVKGRFTISRDNSKNTLFLQVNSLRAEDTAVYYCAKGERIIMMVVLTLFDYWGQGTLVTVSS
VL: QSVLTQPPSVSAAPGQKVTISCPGSSSNIGKNYVSWYQQLPGTAPKLLIYDNNKRPSGIPDRFTGSKSGTSATLDITGLQTGDEADYYCGTWDSSLSAGWVFGGGTKLTVL
B9: C81G9 (antibody, V domains shown)
VH: EVQLVESGGGLVQPGGSLRLSCAASGFTFSSYSVNWVRQAPGKGLEWVSYISSSSLTIYYADSVKGRFIISRDNAKNSLYLQMNSLRDEDTAVYHCAREGPSSSWFSYYYMDVWGKGTTVTVSS
VL: QSALTQPASVSGSPGQSITISCTGTSSDVGSYNLVSWYQQHPGKAPKLMIYEGSKRPSGVSNRFSGSKSGNTASLTISGLQAEDEAEYYCCSYAGSSTSPYVFGTGTKVTAL
B10: C81G11 (antibody, V domains shown)
VH: QVQLQESGPGLVKPSGTLSLTCAVSGGSISSSNWWSWVRQPPGKGLEWIGEIYHSGNTNYNPSLTSRVTLSVDKSKNQFSLKLSSVTAADTALYYCAGRFCGSTSCPNWFDPWGQGTLVTVSS
VL: QSALTQPASVSGSPGQSITISCTGTSSDVGSYNLVSWYQQHPGKAPKLMIYEGSKRPSGVSNRFSGSKSGNTASLTISGLQAEDEADYYCCSYAGSSTWVFGGGTKLTVL
B11: C12I5 (antibody, V domains shown)
VH: QVQLQESGPGLVKPSGTLSLTCAVSGGSISSSNWWSWVRQPPGKGLEWIGEIYHSGSTNYNPSLKSRVTISVDKSKNQFSLKLSSVTAADTAVYYCARGWGSSSYWFDPWGQGTLVTVSS
VL: B10 VL
B12: C12I11 (antibody, V domains shown)
VH: QVQLQESGPGLVKPSGTLSLTCAISGGSISSSNWWSWVRQPPGKGLEWIGEIYHSGSTNYNPSLKSRVTISVDKSKNQFSLKLSSVTAADTAVYYCARGALVPAARLNAFDIWGQGTMVTVSS
VL: B10 VL with W99Y, G103T, L107V
B13: C12J11 (antibody, V domains shown)
VH: B11 VH with R98I, G99R, W100A, G101S, S102G, S103Y, S104Y, Y105N
VL: B10 VL with C91Y
B14: C81B10 (antibody, V domains shown)
VH: QLQLQESGPGLVKPSQTLSLTCTVSGGSISSGDYYWSWIRQPPGKGLEWIGYIYYSGSTYYNPSLKSRVTISVDTSKNQFSLKLSSVTAADTAVYYCARVRGTYYYVSGSYYPRPLYYYYMDVWGKGTTVTVSS
VL: not shown
B15: C81A3 (antibody, V domains shown)
VH: QVQLQESGPGLVKPSGTLSLTCAVSGGSISSSNWWSWVRQPPGKGLEWIGEIYHSGSTNYNPSLKSRVTISVDKSKNQFSLKLSSVTAADTAVYYCARRYCSGGSCSGFDYWGQGTLVTVSS
VL: B10 VL with Q40H, S96F
B16: C12D6 (antibody, V domains shown)
VH: QLQLQETGPGLVKPSGTLSLTCAVSGDSISSSDWWTWVRQPPGKGLEWIGEIYHSGSTNYNPSLKSRVTISVDKSKNQFSLKLSSVTAADTAVYYCARRGRAASERGTGNFDYWGQGTLVTVSS
VL: B10 VL with G53V
B17: G32L7 (antibody, V domains shown)
VH: EVQLLESGGGSVQPGGSLRLSCAASGFTFSSYAMSWVRQAPGKGLEWVSVISGSGGSTYYADSVKGRFTISRDNSKNTLYLQMNSLRAEDTAVYYCAKAERITMLVVVTLIDYWGQGTLVTVSS
VL: QSVLTQPPSVSAAPGQKVTISCSGSSSNIGNNYVSWYQQLPGTAPKLLIYDNNKRPSGIPDRFSGSKSGTSATLGITGLQTGDEADYYCGTWDSSLSAVVFGGGTKLTVL
B18: C83A7 (antibody, V domains shown)
VH: QVQLQESGPGLVKPSETLSLTCTVSGGSVSSGSYYWSWIRQPPGKGLEWIGYIYYSGRTNYNPSLKSRVTISVDTSKNQFSLKLSSVTAADTAVYYCARTVITMIVGNWYFDLWGRGTLVTVSS
VL: not shown

These binders were tested against SARS-CoV-2 S ectodomain trimer, prefusion-stabilized, 2P variant (Wrapp et al., 2020) (SARS-CoV-2, Wuhan-Hu-1, UniProt P0DTC2, stabilised).

| Binder | binding result |
| --- | --- |
| B1 | binds |
| B2 | binds |
| B3 | binds |
| B4 | binds |
| B5 | binds |
| B6 | binds |
| B7 | binds |
| B8 | binds |
| B9 | binds |
| B10 | binds |
| B11 | binds |
| B12 | binds |
| B13 | binds |
| B14 | binds |
| B15 | binds |
| B16 | binds |
| B17 | binds |
| B18 | binds |
